Results as given in US20230357405A1.

Molecular target: human PD-1 expressed on cells (CHO human PD-1 cells) (human) (UniProt Q15116)
Experiment: cell-based or functional assay

human PD-1 expressed on cells (CHO human PD-1 cells) (human), sequence (Q15116 21-288): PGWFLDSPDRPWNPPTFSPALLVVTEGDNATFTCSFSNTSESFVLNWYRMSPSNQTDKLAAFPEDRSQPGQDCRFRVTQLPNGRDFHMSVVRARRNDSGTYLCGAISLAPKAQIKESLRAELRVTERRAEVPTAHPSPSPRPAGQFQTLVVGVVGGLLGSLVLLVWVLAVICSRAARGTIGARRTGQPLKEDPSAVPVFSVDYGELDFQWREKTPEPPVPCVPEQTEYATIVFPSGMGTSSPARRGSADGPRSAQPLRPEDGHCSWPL

B1: 1.57-4GS-MSA binder (bispecific antibody, part only; not given: mouse serum albumin binding VH, part only)
chain, part: QVQLVESGGGLVKPGGSLRLSCAASGFTFSDNSMTWMRQAPGKGLEWVSYISSGGGVIFYADSVKGRFTISRDNAKNSLYLQMNSLRADDTAVYYCAREAPLRLGESPHDAFDISGQGTMVTVSSGGGGSGGGGSGGGGSGGGGS
B1 was tested, and the EC50 (M); human PD-1 reporter gene assay was 1e-08 M and the EC50 (M); reporter assay was 1e-08 M.
